Laboratory results from the supplement of paper PMC12042874.
± gives the uncertainty stated by the source.

Experiment: amyloid nucleation score (Sup35N fusion, yeast selection) (log enrichment); library NNK2; higher = more nucleation; inactive = no reads after selection
In short: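 Plasmid inserts were Illumina-sequenced at input and output from psi-negative yeast expressing Sup35N fused to peptides of 20 random codons. The yeast were induced with 100 μM copper sulfate for 24 hours and grown 7 days at 30°C on medium lacking adenine and uracil, and sequences with under 100 input reads were excluded. Nucleation score is the DiMSum log enrichment of output over input reads, centred on the mode score of non-aggregating sequences.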

Substance | amyloid nucleation score
AGPDSVQCRCSLKSSEGSCG | 6.776 ± 0.066
AGRLLGNVGNWRANEGAGGD | -0.833 ± 1.1
AGSSSVNQITCLH | -0.22 ± 1
AHHCVGYCSHIFQDPRGRVM | 0.22 ± 0.44
AHKLCSFSVSKHHFWRLNGK | -0.023 ± 0.62
AHLAKSKVGLFCHNVMFEVP | -0.381 ± 1.1
AHLARGGWFVKRCYSGGDVF | -0.087 ± 0.76
AICMAY | 1.27 ± 0.095
AINLGSDYKWSGMAFVKG | 0.285 ± 1
AIPSRPSFLKPQPRILFTIP | -0.702 ± 0.39
AISGWCNMNCKLGKQWDYLV | 1.25 ± 0.66
AISVKKWSFHEKKRNTMLT | -0.027 ± 0.28
AIWGTHPQRRDIRKRERIVV | -0.205 ± 0.27
AKCPIRNRSLSCIQWSGGAK | 0.398 ± 0.27
AKDRTCRWLISKQSIPDSRA | 0.119 ± 0.27
AKKLMSWEAVVLWGASRCVT | 1.08 ± 0.42
AKVWDCGSPKVQYIVARQVV | 0.042 ± 0.46
ALAACSNSRG | 0.416 ± 0.54
ALCRGW | -0.689 ± 0.41
ALCWVGSYSACLRIFKPSRM | 0.521 ± 0.41
ALFRD | 0.066 ± 1

Substance | amyloid nucleation score
ALFSIITVFSVRLVVWT | inactive
ALGENAPILDRWLIGSLVFL | 1.77 ± 0.39
ALHSWFRMSSLSMYIVDMGG | -0.077 ± 0.76
ALKNLHAHTG | 0.015 ± 0.8
ALPCRLISFFALVGWIVG | -0.088 ± 0.49
ALPTWWVDKNLLSCLYSELS | -0.104 ± 0.62
ALRISQFCIL | -0.261 ± 1.1
ALRYVMRLY | 2.53 ± 0.11
ALSYFTGCRF | 0.766 ± 0.47
ALYLMTFPSRDLIRACEEA | 0.678 ± 0.56
AMGMRTSYCGC | inactive
AMPSNMLGTSGSYDAC | 0.404 ± 0.66
AMQVVTVLNATACEMWAMGL | 7.498 ± 0.034
AMTTRFCGVFLKGWL | 0.176 ± 0.64
AMVLLYDGTGSTGVNPGQAG | 0.987 ± 0.67
AMVWGSIFSRKSQGLSHSSG | inactive
ANLFVCMDDM | -0.051 ± 0.23
ANLRNSW | -0.82 ± 0.56
ANQDGNCFGFISVGSQLSLM | 0.387 ± 0.8
ANWQWPYCCCCLEGIGRNLF | 4.94 ± 0.073
APFLGRLEVRV | 0.563 ± 0.37

Substance | amyloid nucleation score
APFQRPSSPTDREYRNGALL | 1.27 ± 0.23
APTQDTLEFRHISFEVVWRT | 2.84 ± 0.18
AQAMLSNTILIYEYRDLFIV | -0.962 ± 0.78
AQNLGFHEMGLAKCCRVGLY | 0.233 ± 0.44
AQVDGSISSSSVVSVLKSEV | -0.262 ± 0.36
ARCIQVMVIGISWRVGCMPT | 0.521 ± 0.36
ARCNCL | 0.559 ± 0.49
ARDNQMARDI | 2.83 ± 0.15
AREHPKY | 0.645 ± 0.14
ARFASIWVWTLGDCWRKCSY | -0.152 ± 0.76
ARFFGFYYPTTGIPGNYGFC | -0.315 ± 1
ARHMHSASYNYTGTRSYSFY | 5.56 ± 0.091
ARNPDFRCDSASI | -0.146 ± 1
ARSLTKSLARYRGRMQMTGP | 0.929 ± 0.3
ARTRLALWGLQRRGSPVFDN | 0.157 ± 0.63
ARTSLCESTWPTNVRIGPKS | 0.498 ± 0.64
ASAAAHVRIYQMIFVFERQL | 0.001 ± 0.48
ASASSVIAMRNRMGGLNRFC | -0.302 ± 0.24
ASEGVGCFV | inactive
ASGKWHSCAGSGDYM | -0.453 ± 0.33
ASGLLPDLDVEKEDRCGIYE | 0.859 ± 0.52

Substance | amyloid nucleation score
ASHLVVTLVNKVKCNAVVRG | 0.758 ± 0.21
ASILMSRKTMGSNRHCSFVG | 0.345 ± 0.3
ASKSYIITSSCRASLTVSSL | inactive
ASMDSSVPRAGDAGRSDMSS | 2.26 ± 0.14
ASSFMSDGRT | 0.35 ± 0.56
ASSNLNDTYITIDADSVHRR | 0.033 ± 0.49
ASTFYMVGSIG | 2.8 ± 0.083
ASYQRSCILRRFTFVSCILI | 1.56 ± 0.17
ATDVCKKLWFALLVSVLVSS | 0.642 ± 0.48
ATESIMLLPYNTDPSMTWLT | 0.227 ± 0.55
ATFFILRTYGVWVTSIKRRS | 0.157 ± 1
ATYPVSATGSGELWVDRGQE | 0.603 ± 0.38
AVATGNTCSPVSVRKSLGQS | 1.87 ± 0.13
AVELGSGGALSRDKLQGQDG | 0.791 ± 0.74
AVEQWQ | 1.58 ± 0.37
AVLPSIDYGCEPRL | 0.136 ± 0.5
AVMWTK | 0.669 ± 0.52
AVPGVC | 0.72 ± 0.26
AVYYGSMWLGQGGIVPW | 1.93 ± 0.15
AWNLFLFQSRL | 4.7 ± 0.073
